From patent US20200270365A1 (JIANGSU HENGRUI MEDICINE, published 2020)

Columns and labels:
[1] = target: T1, PCSK9 D374Y mutant protein inserted with biotin receiving peptide BP15 and His-tag: PCSK9-D374Y-BP15-His6 (human, UniProt Q8NBP7 153-692; A8T644 31-152, biotin on the BP15 biotin receiving peptide); test: competition ELISA, LDLR-FC coated, biotin PCSK9-Y + antibody
T1 construct: also called PCSK9-Y; mutant PCSK9
Procedure: The blocking ability of PCSK9 antibodies according to the present invention for the binding of LDLR-FC and PCSK9-Y (mutant PCSK9, SEQ ID NO: 6) was tested by measuring the amount of PCSK9-Y binding to LDLR in the presence of the antibodies.
(§1) LDLR-FC (produced in-house, with sequence of SEQ ID NO: 8) was diluted to 2 μg/ml with phosphate buffer and was added into the 96-well ELISA plate, at 4° C. overnight. The plate was washed and then blocked with Tris buffer (including 0.9 mM CaCl₂, 0.05% Tween 20 and 5% skim milk) at 37° C. for 2 hours. Then the plate was washed and 100 μl/well of mixture of biotin-labeled mutant PCSK9 (diluted to 1 μg/ml with Tris buffer containing 0.9 mM CaCl₂, 0.05% Tween 20 and 1% skim milk) and antibody samples (diluted with Tris buffer containing 0.9 mM CaCl₂, 0.05% Tween 20 and 1% skim milk) was added and incubated at 37° C. for 1 hour. Then the plate was washed again and horseradish peroxidase-streptavidin (sigma, CAT #S2438) was added and incubated at 37° C. for 1 hour. Then the plate was washed and tetramethyl brenzidine solution was added for development. Finally, the stop buffer was added and OD450 value was measured on the Microplate reader, then IC50 value was calculated.

[2] = target: T2, PCSK9 protein inserted with biotin receiving peptide BP15 and His-tag: PCSK9-BP15-His6 (human, UniProt Q8NBP7 153-692; A8T644 31-152, biotin on the BP15 biotin receiving peptide (labeled during the expression)); test: competition ELISA, LDLR-FC coated, biotin PCSK9 + antibody
T2 construct: also called WT PCSK9; PCSK9 WT
Procedure: The blocking ability of PCSK9 antibodies according to the present invention for the binding of LDLR-FC (produced in-house, with sequence of SEQ ID NO: 8) and PCSK9 (SEQ ID NO: 5) was tested by measuring the amount of PCSK9 binding to LDLR in the presence of the antibodies.
as §1, with “LDLR-FC” for “LDLR-FC (produced in-house, with sequence of SEQ ID NO: 8)”, “to 5” for “to 2”, “plate, kept” for “plate,”, “biotin-labeled” for “biotin-labeled mutant”, “to 2” for “to 1”

[3] = target: T1, PCSK9 D374Y mutant protein inserted …; test: ELISA, biotin PCSK9-Y on streptavidin plate
Procedure: The binding ability of anti-PCSK9 antibodies of the present invention to PCSK9-Y protein (mutant PCSK9, SEQ ID NO: 6) was detected by measuring the amounts of antibodies binding to PCSK9-Y immobilized on the ELISA plate.
Streptavidin (sigma, CAT #S4762) was diluted to 2 μg/ml with PBS and was added into a 96-well ELISA plate, at 4° C. for overnight. The plate was washed and then was blocked with Tris buffer (including 0.9 mM CaCl₂, 0.05% Tween 20 and 5% skim milk) at 37° C. for 2 hours. The plate was washed and 100 μl/well of biotin-labeled PCSK9-Y (produced in-house, diluted with Tris buffer containing 0.9 mM CaCl₂, 0.05% Tween 20 and 1% skim milk) was added and incubated at 37° C. for 1 hour. After the wash step, various concentrations of diluted PCSK9 antibody samples were added to the plate and incubated at 37° C. for 1 hour. […] Then the plate was washed and tetramethyl brenzidine solution was added for development. Finally, the stop buffer was added and the OD450 value was measured on the Microplate reader, and then EC50 was calculated.

[4] = target: T2, PCSK9 protein inserted with biotin …; test: ELISA, biotin PCSK9 on streptavidin plate
Procedure: The binding ability of anti-PCSK9 antibodies of the present invention to PCSK9 protein (WT PCSK9, SEQ ID NO: 5) was detected by measuring the amounts of antibodies binding to PCSK9 immobilized on the ELISA plate.
Streptavidin (sigma, CAT #S4762) was diluted to 2 μg/ml with PBS and was added into a 96-well ELISA plate, at 4° C. for overnight. The plate was washed and then was blocked with Tris buffer (including 0.9 mM CaCl₂, 0.05% Tween 20 and 5% skim milk) at 37° C. for 2 hours. Then the plate was washed again and 100 μl/well of biotin-labeled PCSK9 (produced in-house, diluted with Tris buffer containing 0.9 mM CaCl₂, 0.05% Tween 20 and 1% skim milk) was added and incubated at 37° C. for 1 hour. After the wash step various concentrations of diluted PCSK9 antibody samples was added to the plate and incubated at 37° C. for 1 hour. […] Then the plate was washed and tetramethyl brenzidine solution was added for development. Finally, the stop buffer was added and the OD450 value was measured on the Microplate reader, and then EC50 was calculated.

| Binder | IC50 [1] | IC50 [2] | EC50 [3] | EC50 [4] |
| --- | --- | --- | --- | --- |
| h011-3050 (antibody, V domains shown) VH: QVQLVQSGAEVKKPGASVKVSCKASGYTFTGYTIHWVRQAPGQGLEWMGEILPSSTYTKFNQKFKDRVTMTRDTSISTAYMELSRLRSDDTAVYYCARERIYSNYWFFDVWGQGTTVTVSS VL: DIVMTQSPSSLSASVGDRVTITCKASQNVYTAVAWYQQKPGKSPKLLIYSASNRYTGVPSRFSGSGSGTDFTLTISSLQPEDFATYFCQQYSSYPYTFGGGTKVEIK | 0.123 µg/mL | 0.598 µg/mL | 0.00525 µg/mL | 0.00312 µg/mL |
| h011-3065 (antibody, V domains shown) VH: QVQLVQSGAEVKKPGASVKVSCKASGYTFTGYDIHWVRQAPGQGLEWMGYINPSSTYTKFNQKFKDRVTMTRDTSISTAYMELSRLRSDDTAVYYCARERIYSNYWFFDVWGQGTTVTVSS VL: DIVMTQSPSSLSASVGDRVTITCKASQNVYTAVAWYQQKPGKSPKLLIYSASNRYTGVPSRFSGSGSGTDFTLTISSLQPEDFATYFCQQYSSYPYTFGGGTKVEIK | 0.312 µg/mL | 0.73 µg/mL | 0.0109 µg/mL | 0.00539 µg/mL |
| h011-3058 (antibody, V domains shown) VH: QVQLVQSGAEVKKPGASVKVSCKASGYTFTGYTIHWVRQAPGQGLEWMGEINPSGTYTKFNQKFKDRVTMTRDTSISTAYMELSRLRSDDTAVYYCARERIYSNYWFFDVWGQGTTVTVSS VL: DIVMTQSPSSLSASVGDRVTITCKASQNVYTAVAWYQQKPGKSPKLLIYSASNRYTGVPSRFSGSGSGTDFTLTISSLQPEDFATYFCQQYSSYPYTFGGGTKVEIK | 0.162 µg/mL | 0.542 µg/mL | 0.00606 µg/mL | 0.00369 µg/mL |
| h011-3073 (antibody, V domains shown) VH: QVQLVQSGAEVKKPGASVKVSCKASGYTFTGYTIHWVRQAPGQGLEWMGYINPSSTYTKFNQKFKDRVTMTRDTSISTAYMELSRLRSDDTAVYYCARENIFSNYWFFDRWGQGTTVTVSS VL: DIVMTQSPSSLSASVGDRVTITCKASQNVYTAVAWYQQKPGKSPKLLIYSASNRYTGVPSRFSGSGSGTDFTLTISSLQPEDFATYFCQQYSSYPYTFGGGTKVEIK | 0.129 µg/mL | 0.604 µg/mL | 0.0123 µg/mL | 0.00389 µg/mL |
| h011-3093 (antibody, V domains shown) VH: QVQLVQSGAEVKKPGASVKVSCKASGYTFTGYTIHWVRQAPGQGLEWMGYINPSSTYTKFNQKFKDRVTMTRDTSISTAYMELSRLRSDDTAVYYCARERIYSNYWFFDVWGQGTTVTVSS VL: DIVMTQSPSSLSASVGDRVTITCKASQNVYTAVAWYQQKPGKSPKLLIYEMVNRYTGVPSRFSGSGSGTDFTLTISSLQPEDFATYFCQQYSSYPYTFGGGTKVEIK | 0.287 µg/mL | 0.706 µg/mL | 0.00989 µg/mL | 0.00381 µg/mL |
| h011-3070 (antibody, V domains shown) VH: QVQLVQSGAEVKKPGASVKVSCKASGYTFTGYTIHWVRQAPGQGLEWMGYINPSSTYTKFNQKFKDRVTMTRDTSISTAYMELSRLRSDDTAVYYCARENIYFNYWFFDRWGQGTTVTVSS VL: DIVMTQSPSSLSASVGDRVTITCKASQNVYTAVAWYQQKPGKSPKLLIYSASNRYTGVPSRFSGSGSGTDFTLTISSLQPEDFATYFCQQYSSYPYTFGGGTKVEIK | 0.228 µg/mL | 0.629 µg/mL | 0.0144 µg/mL | 0.00511 µg/mL |

Continued, values first:

| IC50 [1] | IC50 [2] | EC50 [3] | EC50 [4] | Binder |
| --- | --- | --- | --- | --- |
| 0.226 µg/mL | 1.22 µg/mL | 0.00681 µg/mL | 0.00498 µg/mL | h011-3111 (antibody, V domains shown) VH: QVQLVQSGAEVKKPGASVKVSCKASGYTFTGYTIHWVRQAPGQGLEWMGYINPSSTYTKFNQKFKDRVTMTRDTSISTAYMELSRLRSDDTAVYYCARERIYSNYWFFDVWGQGTTVTVSS VL: DIVMTQSPSSLSASVGDRVTITCKASQNVYWEVDWYQQKPGKSPKLLIYSASNRYTGVPSRFSGSGSGTDFTLTISSLQPEDFATYFCQQYSSYPYTFGGGTKVEIK |
| 0.391 µg/mL | 0.582 µg/mL | 0.0132 µg/mL | 0.00441 µg/mL | h011-3095 (antibody, V domains shown) VH: QVQLVQSGAEVKKPGASVKVSCKASGYTFTGYTIHWVRQAPGQGLEWMGYINPSSTYTKFNQKFKDRVTMTRDTSISTAYMELSRLRSDDTAVYYCARERIYSNYWFFDVWGQGTTVTVSS VL: DIVMTQSPSSLSASVGDRVTITCKASQNVYTAVAWYQQKPGKSPKLLIYEASNRYTGVPSRFSGSGSGTDFTLTISSLQPEDFATYFCQQYSSYPYTFGGGTKVEIK |
| 0.174 µg/mL | 0.662 µg/mL | 0.00695 µg/mL | 0.00378 µg/mL | h011-3121 (antibody, V domains shown) VH: QVQLVQSGAEVKKPGASVKVSCKASGYTFTGYTIHWVRQAPGQGLEWMGYINPSSTYTKFNQKFKDRVTMTRDTSISTAYMELSRLRSDDTAVYYCARERIYSNYWFFDVWGQGTTVTVSS VL: DIVMTQSPSSLSASVGDRVTITCKASQNVYTAVAWYQQKPGKSPKLLIYSASNRYTGVPSRFSGSGSGTDFTLTISSLQPEDFATYFCQQLSSQPETFGGGTKVEIK |
| 0.213 µg/mL | 0.911 µg/mL | 0.00711 µg/mL | 0.00538 µg/mL | h011-3120 (antibody, V domains shown) VH: QVQLVQSGAEVKKPGASVKVSCKASGYTFTGYTIHWVRQAPGQGLEWMGYINPSSTYTKFNQKFKDRVTMTRDTSISTAYMELSRLRSDDTAVYYCARERIYSNYWFFDVWGQGTTVTVSS VL: DIVMTQSPSSLSASVGDRVTITCKASQNVYTAVAWYQQKPGKSPKLLIYSASNRYTGVPSRFSGSGSGTDFTLTISSLQPEDFATYFCQQFSWFPYTFGGGTKVEIK |
| 0.23 µg/mL | 1.04 µg/mL | 0.00851 µg/mL | 0.00351 µg/mL | h011-3118 (antibody, V domains shown) VH: QVQLVQSGAEVKKPGASVKVSCKASGYTFTGYTIHWVRQAPGQGLEWMGYINPSSTYTKFNQKFKDRVTMTRDTSISTAYMELSRLRSDDTAVYYCARERIYSNYWFFDVWGQGTTVTVSS VL: DIVMTQSPSSLSASVGDRVTITCKASQNVYWEVVWYQQKPGKSPKLLIYSASNRYTGVPSRFSGSGSGTDFTLTISSLQPEDFATYFCQQYSSYPYTFGGGTKVEIK |
